Measured values published in paper doi:10.1101/781070 (bioRxiv, 2019).

Target: the molecule itself
Test: crystal structure

B1: Drosophila melanogaster Noppera-bo (DmNobo), wild type (enzyme)
chain: MSQPKPILYYDERSPPVRSCLMLIKLLDIDVELRFVNLFKGEQFQKDFLALNPQHSVPTLVHGDLVLTDSHAILIHLAEKFDEGGSLWPQEHAERMKVLNLLLFECSFLFRRDSDFMSATVRQGFANVDVAHHERKLTEAYIIMERYLENSDFMAGPQLTLADLSIVTTLSTVNLMFPLSQFPRLRRWFTAMQQLDAYEANCSGLEKLRQTMESVGSFQFPSSSAVVTEKVE
B1 was tested, and the “stoichiometry N” value was 2.
